# Reference: patent publication US7094548B2, “Purification of recombinant proteins fused to multiple epitopes” (Sigma-Aldrich Co., priority 1999, dated 2006)
# How the values were obtained:
# [1] = target: 3XFLAG-BAP (bacterial alkaline phosphatase with the triple FLAG sequence at the N-terminus) (E. coli) [phosphatase: P00634]; assay: western blot, M2 at 10 ug/ml, chemiluminescence
# [2] = target: 3XFLAG-BAP (bacterial alkaline phosphatase with the triple FLAG sequence at the N-terminus) (E. coli) [phosphatase: P00634]; assay: western blot, M2 at 10 ug/ml, chemiluminescence, longer exposure
# [3] = target: 3XFLAG-BAP (bacterial alkaline phosphatase with the triple FLAG sequence at the N-terminus) (E. coli) [phosphatase: P00634]; assay: dot blot
# [4] = target: 3XFLAG-BAP (bacterial alkaline phosphatase with the triple FLAG sequence at the N-terminus) (E. coli) [phosphatase: P00634]; assay: ELISA
# [5] = tested on: FLAG M2 antibody; assay: Isothermal titration calorimetry of M2 antibody binding to FLAG epitopes; settings: 25° C., PBS containing 0.05% sodium azide, for 3XFLAG system r>1000, accurate Ka can not be determined, in M-1 (unit assumed)
# Experimental: Thermodynamic analysis of the M2 antibody binding to the FLAG epitopes was measured by isothermal titration calorimetry using an OMEGA calorimeter (Microcal). All samples were dialyzed against PBS containing 0.05% sodium azide and degassed prior to the measurements. All measurements were made at 25° C. The concentration of M2 antibody was between 15 and 50 uM depending upon which samples were used. The concentration of the titrants were 605 uM for the 1X BAP, 1110 uM for the 1X FLAG peptide, 400 uM for the 3X BAP, and 580 uM for the 3XFLAG peptide. Injections were carried out every 2.5 to 3.0 minutes which was sufficient for baseline to be achieved with injection volumes ranging from 4 to 11 uL. Injections were carried out over a 4 to 10 second period while stirring at 400 rpm. Data analysis and fitting were performed using the Origin software supplied by MicroCal. The enthalpies were obtained by numerical integration of the data and subtraction of the heats of dilution. Values of Ka, n the number of binding sites were determined by fitting the data to a theoretical curve with only the enthalpy was held constant during the fitting process.
# [6] = tested on: M2 antiFLAG antibody; assay: Western blot of purified FLAG-BAP probed with M2 anti-FLAG antibody, chemiluminescent detection; format: binding
# Experimental: E. coli BL21 (DE3) were transformed with the expression plasmid containing the triple FLAG BAP construct made according to the methods of Example 1. Cells were grown in terrific broth containing 100 μg/ml ampicillin at 37° C. with agitation. The culture was grown to an OD600=4.0 and then induced with IPTG at a final concentration of 1 mM. The cell culture was grown for an additional 3 hours at 37° C. and then harvested by centrifugation. The cell pellet was resuspended in 50 mM Tris-HCl. pH 8.0 and the cells disrupted by sonication and cellular debris removed by centrifugation. The supernatant was applied to M2 affinity gel was equilibrated with 50 mM Tris-HCI pH 8.0, 150 mM NaCl (TBS). The resin was washed with 20 bed volumes of TBS and then the triple FLAG BAP was eluted with five column volumes of 0.1 M Glycine pH 3.5.
# The eluted protein was pooled and adjusted to pH 7.5 with 1.0 M Tris-HCl pH 8.0. Protein content was determined by both Bradford and by absorbance using ε280=0.7ml/mg.
# Purified 3XFLAG-BAP and N-BAP were diluted with to 2X Laemlli buffer, boiled for five minutes and then placed on ice. Samples were resolved on a 15% SDS-PAGE using the method of Laemlli (Laemli, V., Nature, 227:680–685 (1970)) and then transferred to nitrocellulose membranes. The membrane was blocked with phosphate buffered saline containing 3% non-fat dry milk for 1 hour and then rinsed three times in TBS, 0.05% Tween 20 (TBS-T). The membrane was incubated with M2 antibody at a final concentration of 10 μg/ml for 30 minutes in TBS-T and then rinsed three times in TBS-T. The membrane was then incubated for 30 minutes with a goat […] IgG (whole molecule) Horseradish peroxidase(HRP) conjugate diluted 1:10,000 in TBS-T then rinsed three times in TBS-T. The FLAG tagged protein were detected with the HRP conjugates and visualized by chemilumenescent detection using ECL (Amersham) and Kodak X-Omat MR film according to manufacturer's directions with exposures from 1 to 30 minutes.
# [7] = tested on: anti-FLAG M2 affinity gel; assay: Competitive elution from anti-FLAG M2 affinity gel; format: binding; settings: for competitive elution from anti-FLAG M2 affinity gel using 3XFLAG peptide: competitor: 3XFLAG peptide
amount detected [1],fold increase in detection limit against single FLAG-BAP [1],amount detected [2],fold increase in detection against single FLAG [3],fold increase in detection against single FLAG [4],Ka (association constant) [5],Molecule,amount of purified protein detected ([6]; exposures as short as 1 minute),"amount of purified protein detected ([6]; increased exposure time, with increased background)","increase in detection limit compared to the single FLAG-BAP fusion protein ([6]; western blot, M2 antibody, chemiluminescence)",competitive elution from anti-FLAG M2 affinity gel using 3XFLAG peptide [7],elution from anti-FLAG M2 affinity gel by competition with the original FLAG peptide ([7]; competitor: original FLAG peptide)
500 picograms,10 fold,100 picograms,> 10 fold,> 10 fold,,anti-FLAG M2 monoclonal antibody,,,,,
,,,,,2.09E+08,3XBAP: triple FLAG version of bacterial alkaline phosphatase expressed in E. coli from p3XFLAG-ATS-BAP and purified on M2 affinity gel (protein) MDYKDHDGDYKDHDIDYKDDDDKMPVLENRAAQGDITAPGGARRLTGDQTAALRDSLSDKPAKNIILLIGDGMGDSEITAARNYAEGAGGFFKGIDALPLTGQYTHYALNKKTGKPDYVTDSAASATAWSTGVKTYNGALGVDIHEKDHPTILEMAKAAGLATGNVSTAELQDATPAALVAHVTSRKCYGPSATSEKCPGNALEKGGKGSITEQLLNARADVTLGGGAKTFAETATAGEWQGKTLREQAQARGYQLVSDAASLNSVTEANQQKPLLGLFADGNMPVRWLGPKATYHGNIDKPAVTCTPNPQRNDSVPTLAQMTDKAIELLSKNEKGFFLQVEGASIDKQDHAANPCGQIGETVDLDEAVQRALEFAKKEGNTLVIVTADHAHASQIVAPDTKAPGLTQALNTKDGAVMVMSYGNSEEDSQEHTGSQLRIAAYGPHAANVVGLTDQTDLFYTMKAALGLK,500 picograms,100 picograms,10 fold,can be competitively eluted,cannot be eluted
,,,,,1.69E+07,"1XBAP: bacterial alkaline phosphatase fusion protein containing the traditional FLAG epitope (DYKDDDDK), expressed in E. coli and purified (protein) DYKDDDDKMPVLENRAAQGDITAPGGARRLTGDQTAALRDSLSDKPAKNIILLIGDGMGDSEITAARNYAEGAGGFFKGIDALPLTGQYTHYALNKKTGKPDYVTDSAASATAWSTGVKTYNGALGVDIHEKDHPTILEMAKAAGLATGNVSTAELQDATPAALVAHVTSRKCYGPSATSEKCPGNALEKGGKGSITEQLLNARADVTLGGGAKTFAETATAGEWQGKTLREQAQARGYQLVSDAASLNSVTEANQQKPLLGLFADGNMPVRWLGPKATYHGNIDKPAVTCTPNPQRNDSVPTLAQMTDKAIELLSKNEKGFFLQVEGASIDKQDHAANPCGQIGETVDLDEAVQRALEFAKKEGNTLVIVTADHAHASQIVAPDTKAPGLTQALNTKDGAVMVMSYGNSEEDSQEHTGSQLRIAAYGPHAANVVGLTDQTDLFYTMKAALGLK",,,,can be competitively eluted,
